In assay [1] the target is T1, FLAG tagged B3GNT2 (N- or C-terminal FLAG tag) (human, UniProt Q9NY97 1-397).
T1 construct: The text speaks of the co-IP of B3GNT2 without separating the N-FLAG and C-FLAG constructs, so both are held as one molecule; also called N-FLAG B3GNT2; C-FLAG B3GNT2; not shown: FLAG tag at the N- or the C-terminus
T1 sequence (looked up): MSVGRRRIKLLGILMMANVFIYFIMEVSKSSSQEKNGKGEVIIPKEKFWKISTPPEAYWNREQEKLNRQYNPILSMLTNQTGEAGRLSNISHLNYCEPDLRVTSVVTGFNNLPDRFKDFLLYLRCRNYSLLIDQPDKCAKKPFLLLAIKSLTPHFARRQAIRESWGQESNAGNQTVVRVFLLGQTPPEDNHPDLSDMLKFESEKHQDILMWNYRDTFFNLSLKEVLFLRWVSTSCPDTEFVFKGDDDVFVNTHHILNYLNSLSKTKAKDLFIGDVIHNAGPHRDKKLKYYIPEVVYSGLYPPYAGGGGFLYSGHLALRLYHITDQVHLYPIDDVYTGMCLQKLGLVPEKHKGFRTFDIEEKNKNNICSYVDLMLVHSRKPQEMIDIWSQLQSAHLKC
Put plainly: co-IP of FLAG tagged B3GNT2 from A375 lysate, Western blot. Here is the method:
(§1) Cells were plated in 10-cm cell culture dishes and grown to 60-80% confluency. For each condition, two biological replicates were harvested for co-IP. Cells were washed with PBS and 4 mL of lysis buffer (20 mM HEPES, 1% Triton X-100, 150 mM NaCl, 1 mM EDTA, and 10% glycerol) containing protease inhibitor cocktail was added. Cells were scraped and lysate was incubated at 4° C. under rotary agitation for 1 h. Lysate was centrifuged at 14,000×g for 10 min at 4° C. Supernatant was transferred to a new tube and an aliquot was taken as the input. […] For Western blots, 10 μg/mL Chicken Anti-FLAG (Aves labs ET-DY100) and IgY control (R&D Systems AB-101-C) antibodies were biotinylated (Thermo Fisher Scientific 90407) and added to the respective conditions. Lysates with antibodies were incubated at 4° C. under rotary agitation overnight. For each mL of lysate, 50 μL of Pierce Protein A/G Magnetic Beads (Mass spectrometry; Thermo Fisher Scientific 88803) or Pierce Streptavidin Magnetic Beads (Western blot; Thermo Fisher Scientific 88817) was washed twice with lysis buffer. Lysates with antibodies were added to the beads and incubated at 4° C. under rotary agitation for 4 h. Beads were washed with lysis buffer 3 times and resuspended in lysis buffer for storage.

Assay [2] concerns the target T2, KHDRBS1 (human, UniProt Q07666 1-443).
T2 construct: Identified by mass spectrometry in the co-IP; also called NP_006550.1
Put plainly: co-IP with mouse anti-FLAG from lysate of cells overexpressing C-FLAG B3GNT2, then mass spectrometry. Here is the method:
as §1
(§2) Magnetic beads were resuspended in 100 mM Tris pH 7.8, reduced, alkylated and digested with trypsin at 37° ° C. overnight. This solution was subjected to solid phase extraction to concentrate the peptides and remove unwanted reagents followed by injection onto a Shimadzu HPLC with fraction collector. Eight fractions were collected and after concentration were injected on a Waters NanoAcquity HPLC equipped with a self-packed Aeris 3 μm C18 analytical column 0.075 mm by 20 cm, (Phenomenex). Peptides were eluted using standard reverse-phase gradients. The effluent from the column was analyzed using a Thermo Orbitrap Elite mass spectrometer (nanospray configuration) operated in a data dependent manner for 54 minutes. The resulting fragmentation spectra were correlated against the known database using Proteome Discover 1.4 (Thermo Fisher Scientific).

In assay [3] the target is T3, CASC3 (human, UniProt O15234 1-703).
T3 construct: Identified by mass spectrometry in the co-IP; also called NP_031385.2
Described as above. As for the experimental part: as §1, §2

The target in assay [4] is T4, VIM (human, UniProt P08670 2-466).
T4 construct: Identified by mass spectrometry in the co-IP; also called NP_003371.2
The description is as above. As for the experimental part: as §1, §2

The target of assay [5] is T5, ANXA2 (human, UniProt P07355-2 1-357, limits assumed).
T5 construct: Identified by mass spectrometry in the co-IP; also called NP_001002858.1 (+1)
The assay is described as above. Here is the method:
as §1, §2

Assay [6] has as its target T6, PABPC1 (human, UniProt P11940 1-636).
T6 construct: Identified by mass spectrometry in the co-IP; also called NP_002559.2
The description is as above. Here is the method:
as §1, §2

Assay [7] concerns the target T7, CAPRIN1 (human, UniProt Q14444 2-709).
T7 construct: Identified by mass spectrometry in the co-IP; also called NP_005889.3 (+1)
T7 sequence (looked up): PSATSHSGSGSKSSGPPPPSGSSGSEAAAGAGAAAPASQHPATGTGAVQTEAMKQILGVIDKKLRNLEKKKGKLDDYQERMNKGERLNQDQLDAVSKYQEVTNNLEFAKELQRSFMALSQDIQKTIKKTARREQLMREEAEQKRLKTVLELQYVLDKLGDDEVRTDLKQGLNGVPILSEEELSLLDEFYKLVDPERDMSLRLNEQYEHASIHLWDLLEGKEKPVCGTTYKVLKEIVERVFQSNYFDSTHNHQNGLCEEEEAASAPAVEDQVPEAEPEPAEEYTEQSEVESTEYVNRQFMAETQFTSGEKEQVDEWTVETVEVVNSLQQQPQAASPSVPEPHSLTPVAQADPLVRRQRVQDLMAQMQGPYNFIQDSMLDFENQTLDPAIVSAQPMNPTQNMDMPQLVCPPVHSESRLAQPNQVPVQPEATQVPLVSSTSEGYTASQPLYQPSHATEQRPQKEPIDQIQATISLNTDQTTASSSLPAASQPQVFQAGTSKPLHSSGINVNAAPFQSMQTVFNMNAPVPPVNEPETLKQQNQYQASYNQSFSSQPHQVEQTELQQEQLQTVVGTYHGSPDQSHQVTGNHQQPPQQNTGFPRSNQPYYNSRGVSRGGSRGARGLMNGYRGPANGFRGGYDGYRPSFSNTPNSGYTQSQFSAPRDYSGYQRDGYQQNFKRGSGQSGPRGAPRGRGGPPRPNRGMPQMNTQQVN
Described as above. As for the experimental part: as §1, §2

Assay [8] has as its target T8, CPSF6 (human, UniProt Q16630-2 1-588, limits assumed).
T8 construct: Identified by mass spectrometry in the co-IP; also called NP_001287876.1 (+3)
T8 sequence (looked up): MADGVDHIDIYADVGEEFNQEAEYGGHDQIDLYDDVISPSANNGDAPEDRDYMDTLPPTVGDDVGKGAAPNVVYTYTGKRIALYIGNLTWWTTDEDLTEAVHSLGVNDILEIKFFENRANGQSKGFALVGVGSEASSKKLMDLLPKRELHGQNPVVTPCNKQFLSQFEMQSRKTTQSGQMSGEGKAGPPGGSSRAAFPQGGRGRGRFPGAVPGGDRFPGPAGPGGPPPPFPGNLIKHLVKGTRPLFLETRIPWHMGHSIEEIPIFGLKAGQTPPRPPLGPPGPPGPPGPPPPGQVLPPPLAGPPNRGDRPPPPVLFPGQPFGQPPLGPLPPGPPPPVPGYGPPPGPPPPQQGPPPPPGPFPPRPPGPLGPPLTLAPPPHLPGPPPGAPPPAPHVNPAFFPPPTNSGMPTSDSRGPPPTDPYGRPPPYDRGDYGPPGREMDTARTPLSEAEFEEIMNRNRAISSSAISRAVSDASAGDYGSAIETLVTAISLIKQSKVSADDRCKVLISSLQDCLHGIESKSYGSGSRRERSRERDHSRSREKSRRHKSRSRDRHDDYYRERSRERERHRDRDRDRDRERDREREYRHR
The assay is described as above. As for the experimental part: as §1, §2

Experimental findings from patent US20240261333A1 (published 2024) are described below.

T5 sequence (P07355 other isoform, or with tags, fused parts or gaps limits assumed): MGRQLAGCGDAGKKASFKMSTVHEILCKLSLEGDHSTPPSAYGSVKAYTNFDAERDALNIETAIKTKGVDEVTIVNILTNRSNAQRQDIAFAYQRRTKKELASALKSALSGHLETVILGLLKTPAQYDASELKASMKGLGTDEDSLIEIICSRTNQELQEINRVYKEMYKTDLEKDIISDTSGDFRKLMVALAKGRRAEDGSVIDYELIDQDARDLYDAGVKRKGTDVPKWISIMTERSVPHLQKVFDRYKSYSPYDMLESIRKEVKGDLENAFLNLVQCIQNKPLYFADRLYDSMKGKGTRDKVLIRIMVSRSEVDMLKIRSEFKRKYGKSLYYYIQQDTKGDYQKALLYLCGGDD
T2 sequence (Q07666 whole entry): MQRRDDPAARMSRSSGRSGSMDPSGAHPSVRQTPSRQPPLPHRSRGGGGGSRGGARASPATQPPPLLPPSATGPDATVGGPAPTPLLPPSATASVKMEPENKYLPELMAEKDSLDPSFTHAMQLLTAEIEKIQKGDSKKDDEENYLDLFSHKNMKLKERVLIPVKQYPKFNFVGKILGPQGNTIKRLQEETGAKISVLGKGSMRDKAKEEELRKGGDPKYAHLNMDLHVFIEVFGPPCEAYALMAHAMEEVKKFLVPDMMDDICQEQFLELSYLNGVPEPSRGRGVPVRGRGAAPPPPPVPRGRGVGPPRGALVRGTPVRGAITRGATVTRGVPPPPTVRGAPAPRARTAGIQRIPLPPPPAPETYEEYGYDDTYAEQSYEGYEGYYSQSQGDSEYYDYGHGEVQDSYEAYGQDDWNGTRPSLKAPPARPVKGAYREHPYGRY
T3 sequence (O15234 whole entry): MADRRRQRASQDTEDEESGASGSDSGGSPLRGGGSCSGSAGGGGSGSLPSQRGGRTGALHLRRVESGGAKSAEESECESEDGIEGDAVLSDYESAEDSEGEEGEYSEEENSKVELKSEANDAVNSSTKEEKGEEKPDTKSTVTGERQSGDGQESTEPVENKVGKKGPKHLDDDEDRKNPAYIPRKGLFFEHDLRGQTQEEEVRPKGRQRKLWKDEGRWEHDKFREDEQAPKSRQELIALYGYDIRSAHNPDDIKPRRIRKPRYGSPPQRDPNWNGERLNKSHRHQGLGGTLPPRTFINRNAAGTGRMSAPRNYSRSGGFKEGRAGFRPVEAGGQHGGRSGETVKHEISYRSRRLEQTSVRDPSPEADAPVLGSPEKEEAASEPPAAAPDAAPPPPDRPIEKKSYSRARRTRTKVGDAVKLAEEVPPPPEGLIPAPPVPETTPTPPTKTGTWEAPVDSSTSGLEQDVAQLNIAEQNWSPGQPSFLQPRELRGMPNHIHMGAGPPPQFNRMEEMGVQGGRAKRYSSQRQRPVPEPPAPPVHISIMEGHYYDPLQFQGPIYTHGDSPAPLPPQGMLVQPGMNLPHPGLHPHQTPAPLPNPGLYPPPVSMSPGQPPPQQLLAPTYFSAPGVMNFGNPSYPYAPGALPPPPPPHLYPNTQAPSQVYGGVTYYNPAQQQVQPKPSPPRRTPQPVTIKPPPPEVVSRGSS
T4 sequence (P08670 2-466 limits assumed): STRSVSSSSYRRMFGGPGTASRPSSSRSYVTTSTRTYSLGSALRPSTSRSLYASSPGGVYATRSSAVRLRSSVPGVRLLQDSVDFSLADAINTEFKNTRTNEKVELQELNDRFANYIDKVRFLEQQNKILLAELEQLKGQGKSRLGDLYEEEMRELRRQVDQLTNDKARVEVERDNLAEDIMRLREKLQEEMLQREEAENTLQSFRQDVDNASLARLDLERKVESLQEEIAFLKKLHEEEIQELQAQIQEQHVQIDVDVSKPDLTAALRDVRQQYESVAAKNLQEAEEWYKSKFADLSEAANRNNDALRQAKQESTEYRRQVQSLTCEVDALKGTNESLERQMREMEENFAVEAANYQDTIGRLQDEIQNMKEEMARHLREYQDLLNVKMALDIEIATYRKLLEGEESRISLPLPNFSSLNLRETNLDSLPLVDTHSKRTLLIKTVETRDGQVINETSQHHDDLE
T6 sequence (P11940 whole entry): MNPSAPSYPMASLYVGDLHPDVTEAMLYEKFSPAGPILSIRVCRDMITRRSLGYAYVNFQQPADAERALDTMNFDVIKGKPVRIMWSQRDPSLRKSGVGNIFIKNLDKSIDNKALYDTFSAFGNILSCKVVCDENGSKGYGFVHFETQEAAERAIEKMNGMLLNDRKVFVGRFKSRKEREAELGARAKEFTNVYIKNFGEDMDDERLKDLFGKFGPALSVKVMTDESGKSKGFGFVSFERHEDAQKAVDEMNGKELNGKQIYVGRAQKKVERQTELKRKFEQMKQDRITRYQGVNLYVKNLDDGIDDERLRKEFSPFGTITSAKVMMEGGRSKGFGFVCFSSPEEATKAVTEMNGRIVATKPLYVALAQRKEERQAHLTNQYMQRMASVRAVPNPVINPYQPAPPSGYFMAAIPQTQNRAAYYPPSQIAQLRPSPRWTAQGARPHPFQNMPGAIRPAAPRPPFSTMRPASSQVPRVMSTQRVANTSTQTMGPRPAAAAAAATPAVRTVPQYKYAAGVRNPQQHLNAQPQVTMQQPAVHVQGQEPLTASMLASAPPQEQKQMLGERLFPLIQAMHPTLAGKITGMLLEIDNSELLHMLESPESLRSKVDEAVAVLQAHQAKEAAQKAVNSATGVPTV

B1: MICB, endogenous in A375 melanoma cells (ligand, human, UniProt Q29980 23-383, looked up)
chain: AEPHSLRYNLMVLSQDGSVQSGFLAEGHLDGQPFLRYDRQKRRAKPQGQWAENVLGAKTWDTETEDLTENGQDLRRTLTHIKDQKGGLHSLQEIRVCEIHEDSSTRGSRHFYYDGELFLSQNLETQESTVPQSSRAQTLAMNVTNFWKEDAMKTKTHYRAMQADCLQKLQRYLKSGVAIRRTVPPMVNVTCSEVSEGNITVTCRASSFYPRNITLTWRQDGVSLSHNTQQWGDVLPDGNGTYQTWVATRIRQGEEQRFTCYMEHSGNHGTHPVPSGKALVLQSQRTDFPYVSAAMPCFVIIIILCVPCCKKKTSAAEGPELVSLQVLDQHPVGTGDHRDAAQLGFQPLMSATGSTGSTEGT
modifications: poly-LacNAc glycosylation added by B3GNT2 (sites not given)
notes: whole, on cells; On fixed A375 cells in flow cytometry; In the co-IP it comes from the lysate of these cells
As for B1, the binding result in assay [1] was “binds”.

B2: C-terminal FLAG tagged B3GNT2 (enzyme, human, UniProt Q9NY97 1-397, looked up)
chain: MSVGRRRIKLLGILMMANVFIYFIMEVSKSSSQEKNGKGEVIIPKEKFWKISTPPEAYWNREQEKLNRQYNPILSMLTNQTGEAGRLSNISHLNYCEPDLRVTSVVTGFNNLPDRFKDFLLYLRCRNYSLLIDQPDKCAKKPFLLLAIKSLTPHFARRQAIRESWGQESNAGNQTVVRVFLLGQTPPEDNHPDLSDMLKFESEKHQDILMWNYRDTFFNLSLKEVLFLRWVSTSCPDTEFVFKGDDDVFVNTHHILNYLNSLSKTKAKDLFIGDVIHNAGPHRDKKLKYYIPEVVYSGLYPPYAGGGGFLYSGHLALRLYHITDQVHLYPIDDVYTGMCLQKLGLVPEKHKGFRTFDIEEKNKNNICSYVDLMLVHSRKPQEMIDIWSQLQSAHLKC
notes: FLAG-tagged ORF overexpressed in A375 cells; bait of the co-IP with mouse anti-FLAG; also called C-FLAG B3GNT2; C-term flag; not shown: C-terminal FLAG tag
For B2, the “co-IP mass spectrometry count (C-term flag)” value is 9 in assay [2]; 0 in assay [3]; 411 in assay [4]; 15 in assay [5]; 41 in assay [6]; 6 in assay [7]. Also, the “co-IP mass spectrometry count (C-term flag)” value in assay [8] was 35.

B3: IFNGR2, endogenous in A375 melanoma cells (receptor, human, UniProt P38484 22-337, looked up)
chain: APPDPLSQLPAPQHPKIRLYNAEQVLSWEPVALSNSTRPVVYQVQFKYTDSKWFTADIMSIGVNCTQITATECDFTAASPSAGFPMDFNVTLRLRAELGALHSAWVTMPWFQHYRNVTVGPPENIEVTPGEGSLIIRFSSPFDIADTSTAFFCYYVHYWEKGGIQQVKGPFRSNSISLDNLKPSRVYCLQVQAQLLWNKSNIFRVGHLSNISCYETMADASTELQQVILISVGTFSLLSVLAGACFFLVLKYRGLIKYWFHTPPSIPLQIEEYLKDPTQPILEALDKDSSPKDDVWDSVSIISFPEKEQEDVLQTL
modifications: poly-LacNAc glycosylation added by B3GNT2 (sites not given)
notes: whole, on cells; In the co-IP it comes from the lysate of A375 cells
With B3, the binding result in assay [1] was “binds”.

B4: FAS, endogenous in A375 melanoma cells (receptor, human, UniProt P25445 26-335, looked up)
chain: QVTDINSKGLELRKTVTTVETQNLEGLHHDGQFCHKPCPPGERKARDCTVNGDEPDCVPCQEGKEYTDKAHFSSKCRRCRLCDEGHGLEVEINCTRTQNTKCRCKPNFFCNSTVCEHCDPCTKCEHGIIKECTLTSNTKCKEEGSRSNLGWLCLLLLPIPLIVWVKRKEVQKTCRKHRKENQGSHESPTLNPETVAINLSDVDLSKYITTIAGVMTLSQVKGFVRKNGVNEAKIDEIKNDNVQDTAEQKVQLLRNWHQLHGKKEAYDTLIKDLKKANLCTLAEKIQTIILKDITSDSENSNFRNEIQSLV
modifications: poly-LacNAc glycosylation added by B3GNT2 (sites not given)
notes: whole, on cells; In the co-IP it comes from the lysate of A375 cells; also called Fas receptor
With B4, the binding result in assay [1] is listed as “binds”.

B5: CD58, endogenous in A375 melanoma cells (ligand, human, UniProt P19256 29-250, looked up)
chain: FSQQIYGVVYGNVTFHVPSNVPLKEVLWKKQKDKVAELENSEFRAFSSFKNRVYLDTVSGSLTIYNLTSSDEDEYEMESPNITDTMKFFLYVLESLPSPTLTCALTNGSIEVQCMIPEHYNSHRGLIMYSWDCPMEQCKRNSTSIYFKMENDLPQKIQCTLSNPLFNTTSSIILTTCIPSSGHSRHRYALIPIPLAVITTCIVLYMNGILKCDRKPDRTNSN
modifications: poly-LacNAc glycosylation added by B3GNT2 (sites not given)
notes: as for B1
Turning to B5, in assay [1], the binding result is “binds”.

B6: CD70, endogenous in A375 melanoma cells (ligand, human, UniProt P32970 1-193, looked up)
chain: MPEEGSGCSVRRRPYGCVLRAALVPLVAGLVICLVVCIQRFAQAQQQLPLESLGWDVAELQLNHTGPQQDPRLYWQGGPALGRSFLHGPELDKGQLRIHRDGIYMVHIQVTLAICSSTTASRHHPTTLAVGICSPASRSISLLRLSFHQGCTIASQRLTPLARGDTLCTNLTGTLLPSRNTDETFFGVQWVRP
modifications: poly-LacNAc glycosylation added by B3GNT2 (sites not given)
notes: as for B3
As for B6, the binding result in assay [1] is “binds”.
